Laboratory results: article PMC11489063, “Study of sulfoglycolysis in Enterococcus gilvus reveals a widespread bifurcated pathway for dihydroxypropanesulfonate degradation” (iScience, 2024)

Key:
[1] = biological target: T1, HpfX (EgHpfX), 3-sulfopropionaldehyde dehydrogenase (Enterococcus gilvus, UniProt R2XKF7); assay: LC-MS of product 3-SPC, HpfD-coupled; format: biochemical; details: 3-SPA made in situ by HpfD from 40 mM 3-HPS; 4 mM NAD+, 0.5 mM CoA, CAPSO pH 9.5, RT
T1 construct: gene I592_01329
T1 sequence (R2XKF7 1-455): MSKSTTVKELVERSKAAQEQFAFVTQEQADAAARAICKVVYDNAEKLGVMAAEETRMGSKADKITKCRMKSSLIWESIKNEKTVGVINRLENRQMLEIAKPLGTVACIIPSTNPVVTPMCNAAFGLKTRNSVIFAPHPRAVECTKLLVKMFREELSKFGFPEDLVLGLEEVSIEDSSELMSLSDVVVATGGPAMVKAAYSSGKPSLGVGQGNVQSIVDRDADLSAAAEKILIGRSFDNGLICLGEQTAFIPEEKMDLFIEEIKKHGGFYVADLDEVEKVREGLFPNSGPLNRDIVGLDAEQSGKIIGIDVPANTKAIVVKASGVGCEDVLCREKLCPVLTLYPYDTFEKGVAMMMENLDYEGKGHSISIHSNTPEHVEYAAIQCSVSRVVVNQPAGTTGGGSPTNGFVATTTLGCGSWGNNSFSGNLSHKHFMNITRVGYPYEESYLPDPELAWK

[2] = biological target: T1, HpfX (EgHpfX), 3-sulfopropionaldehyde dehydrogenase; assay: spectrophotometric NADH consumption, A340, HpfYZ-coupled; format: biochemical; details: reduction of 3-SPC made in situ by HpfYZ; 0.4 mM NADH, 10 mM 3-SP, 2 mM ATP, 0.4 mM CoA, 10 mM MgCl2, Tris pH 7.5, RT
[3] = system: NC(=O)c1ccc[n+]([C@@H]2O[C@H](COP(=O)(O)OP(=O)(O)OC[C@H]3O[C@@H](n4cnc5c(N)ncnc54)[C@H](O)[C@@H]3O)[C@@H](O)[C@H]2O)c1; assay: purified protein; details: apparent, oxidation direction, 40 mM 3-HPS, 50 mM CAPSO pH 9.5, RT
O=S(=O)(O)CCCO = assay: purified protein; details: apparent, oxidation direction, 4 mM NAD+, 50 mM CAPSO pH 9.5, RT
[4] = substrate: O=C(O)CCS(=O)(=O)O; assay: PK-LDH coupled spectrophotometric assay, A340; format: biochemical, Enterococcus gilvus; details: apparent, 2 mM ATP, 0.4 mM CoA, 10 mM MgCl2, 50 mM KCl, Tris-HCl pH 7.5, RT
[5] = substrate: CC(C)(COP(=O)(O)OP(=O)(O)OC[C@H]1O[C@@H](n2cnc3c(N)ncnc32)[C@H](O)[C@@H]1OP(=O)(O)O)[C@@H](O)C(=O)NCCC(=O)NCCS; assay: PK-LDH coupled spectrophotometric assay, A340; format: biochemical, Enterococcus gilvus; details: apparent, 2 mM 3-SP, 2 mM ATP, 10 mM MgCl2, 50 mM KCl, Tris-HCl pH 7.5, RT
[6] = substrate: Nc1ncnc2c1ncn2[C@@H]1O[C@H](COP(=O)(O)OP(=O)(O)OP(=O)(O)O)[C@@H](O)[C@H]1O; assay: PK-LDH coupled spectrophotometric assay, A340; format: biochemical, Enterococcus gilvus; details: apparent, 2 mM 3-SP, 0.4 mM CoA, 10 mM MgCl2, 50 mM KCl, Tris-HCl pH 7.5, RT

Molecule: O=CCCS(=O)(=O)O [3-SPA]
- LC-MS of product 3-SPC, HpfD-coupled [1]: The ability of the HpfX to oxidize 3-SPA into 3-SPC was ascertained

Molecule: NC(=O)C1=CN([C@@H]2O[C@H](COP(=O)(O)OP(=O)(O)OC[C@H]3O[C@@H](n4cnc5c(N)ncnc54)[C@H](O)[C@@H]3O)[C@@H](O)[C@H]2O)C=CC1 [NADH]
- spectrophotometric NADH consumption, A340, HpfYZ-coupled [2]: indicating reduction of 3-SPC accompanied by the consumption of NADH

Molecule: HpfD (EgHpfD), 3-sulfopropionaldehyde reductase (Enterococcus gilvus ATCC BAA-350)
- Km [3]: 0.64 ± 0.09 mM
- kcat [3]: 20.87 ± 0.84 s⁻¹
- Km (O=S(=O)(O)CCCO): 4.97 ± 0.57 mM
- kcat (O=S(=O)(O)CCCO): 15.30 ± 0.37 s⁻¹

B1: HpfYZ (EgHpfY / EgHpfZ), 3-sulfopropionate-CoA ligase (Enterococcus gilvus ATCC BAA-350) (protein)
chain 1: MDYLEIEGKAQLERFGIPINESILLTGDNIPEDIPYPCVLKGQILSGKRGKAGAVRVVKTRAELIEAKEIIEQIKINDQVMEGVIACGFLPIEEEYYLGMTLDVKNRAMIMLFTPFGGMDIEELAETDPEKLLRFDCTEGFNAEKFKKASTIFELPEKRLNLVVDIAEKLSEACFALDATTIEINPLALLKDESLMAIDAKLVIDDNALYRQGDYTILPRTVQEKSLQEIEAEQYDLTYVEVDPKGNIGTMAGGAGIGMATMDTVFHYGGRVNNFLDLGGGVTSEKTYQAMRILLENENTDYILINIFGGINNCADMAEGITRAYKESGISKTVVVKSRGFNQEQGWSMYKELGFPQAKYGTTDEAVQILLALKGAK
chain 2: MSILINQETELLIIGITGKQGRIHAKRTIESGAKLRAGVAPGKNGEMVEGIPVFESVEDARKEFPQIRAAMLLTPPRFVKDAAIQALQSGIELLVIITEFVPVLDTLEIVTKAKKLGAKVVGPNTIGVIAPGKSKLGIMPADIYGKGRIGIISRSGTLTHETASNLTFKGYGLSTCVGIGGDSIVGMDHADVLELFANDDETDAIVLIGEIGGTSEEMAAAKIKELNIQKPICAYIAGMHAPENKKMGHAGAIVSGNMGTVKSKVEALEDAGVTVCPTLGKIVEFMEKTNSQTNGKLRSLEPKVDASILQT
notes: N-terminal His6-TEV tagged HpfY co-expressed with untagged HpfZ in E. coli BL21(DE3), co-purified 1:1 (predicted heterodimer); codon-optimized genes
- Km [4]: 0.51 ± 0.07 mM
- kcat [4]: 0.38 ± 0.01 s⁻¹
- Km [5]: 0.11 ± 0.03 mM
- kcat [5]: 0.45 ± 0.04 s⁻¹
- Km [6]: 0.18 ± 0.14 mM
- kcat [6]: 0.33 ± 0.01 s⁻¹
